Laboratory results published in publication PMC8837141, “Structural and Functional Differences between Homologous Bacterial Ribonucleases” (International Journal of Molecular Sciences, 2022).
Each block holds one molecule with its values, some of them ahead of it.

Experiments:
[1] = target: balifase (Bacillus licheniformis); assay: SEC; size-exclusion chromatography of the purified RNases; molecular weights from the elution profile of marker proteins; column and buffer not told
[2] = target: balnase (Bacillus altitudinis); assay: as above
[3] = target: the molecule itself; assay: dynamic light scattering; Zetasizer Nano ZS; RNase diluted with ultrapure water, filtered, sonicated for 2 min; particle size by volume distribution; ten runs of 30 s
[4] = target: the molecule itself; assay: SEC; size-exclusion chromatography of the purified RNases; molecular weights from the elution profile of marker proteins; column and buffer not told

B1: binase (enzyme, Bacillus pumilus, UniProt P00649 54-162, looked up)
chain: AVINTFDGVADYLIRYKRLPDNYITKSQASALGWVASKGNLAEVAPGKSIGGDVFSNREGRLPSASGRTWREADINYVSGFRNADRLVYSSDWLIYKTTDHYATFTRIR
notes: binase, guanyl-preferring ribonuclease of Bacillus pumilus (~12 kDa), N1/T1/U2 family (IPR000026); also called RNase from B. pumilus; source: homogeneous protein preparation, obtained using previously described three-step procedure [19,30]
stoichiometry N [3]: 2

B2: barnase (enzyme, Bacillus amyloliquefaciens, UniProt P00648 48-157, looked up)
chain: AQVINTFDGVADYLQTYHKLPDNYITKSEAQALGWVASKGNLADVAPGKSIGGDIFSNREGKLPGKSGRTWREADINYTSGFRNSDRILYSSDWLIYKTTDHYQTFTKIR
notes: barnase, guanyl-preferring ribonuclease of Bacillus amyloliquefaciens; also called RNase from B. amyloliquefaciens; source: homogeneous protein preparation, obtained using previously described three-step procedure [19,30]
stoichiometry N [4]: 2

Now from value to molecule:

stoichiometry N [1]: 2
Molecule: balifase (enzyme)

stoichiometry N [2]: 2
Molecule: balnase (enzyme)
